The RNAGym collection of RNA variant scans (doi:10.7554/elife.90254)

B1: LINE1-full (parent)
chain: UACGUAGGUGGUUUUCCCCUGAUAGUGCUAAGGGGGCCUGGAAGUUUGGACUGGGCAGAGCUCAACACAGCGUGGCAAAGUGGCUGUGGCUAGACUGCCUCUCUGGAUUCCUCGUCACUCAGCAGGGCAUCUCUGAGAGAAAUGCC

Variants of: B1
Assay: self-cleavage, relative activity (ratio to wild type); higher = more cleavage; in vitro, sequencing; the parent is a self-cleaving ribozyme
UACGUAGGUGGUUUUCCCCUGAUAGUGCUAAGGGGGCCUGGAAGUUUGGACUGGGCAGAGCUCAACACAGCCUGGCAAAGUGGCUGUGGCUAGACUGCCUCUCUGGAUUCCCCGUCACUCAGCAGGGCAUCUCUGAGAGAAAUGCC [G72C U112C] showed a self-cleavage of 0.98.
For UACGUACGUGGUUUUCCCCUGAUAGUGCUAAGGGGGCCUGGAAGUUUGGACUGGGCAGAGCUCAACACAGCGUGGCAAAGUGGCUGUGGCUAGACUGCCUCCCUGGAUUCCUCGUCACUCAGCAGGGCAUCUCUGAGAGAAAUGCC [G7C U102C], the self-cleavage was 0.
UACGUAGGUGGUAUUCCCCUGAUAGUGCUAAGGGGGCCUGGAAGUUUGGACUGGGCAGAGCUCAACACAGCGUGGCAAAGUGGCUGUGGCUAGACUGCCUCUCUGGAUUCCUCGUCACUCAGCAGGGCAUCCCUGAGAGAAAUGCC [U13A U132C] gave a self-cleavage of 0.98.
In the case of UACGUAGGUGGUUUUCCCCUGAUAGUGCUAAGGGGGCCUGGAAGUUUGGACUGGGCAGAGCUCAACACAGCGUGGCAAAGUGGCUGUGGCUAGACCGCCUCUCUGGAUUCCUCGUCACUCAGCAGGGCAUCUCUGAGAGAAGUGCC [U96C A142G], the self-cleavage is reported as 0.13.
With UACGUAGGUGGCUUUCCCCUGAUAGUGCUAAGGGGGCCUGGAAGUUUGGACUGGGCAGAGCUCAACACAGCGUGGCAAAGUGGCUGUGGCUAGACUGCCUCUCUGGAUUCCUCGUCACUCAGCAGGGCGUCUCUGAGAGAAAUGCC [U12C A129G] the self-cleavage was 1.4.
With UACGUAGGUGGUUUUCCCCUGAUAGUGCUAAGGGGGCCUGGAAGUUUGGACUGGGCAGAGCCAAACACAGCGUGGCAAAGUGGCUGUGGCUAGACUGCCUCUCUGGAUUCCUCGUCACUCAGCAGGGCAUCUCUGAGAGAAAUGCC [U62C C63A] the self-cleavage was 0.01.
Work on UACGUAGGUGGUUUUCCCCUGAUAGAGCUAAGGGGGCCUGGAAGUUUGGACUGGGCAGAGCUCAACACAGCGUGGCAAAGUGGCUGUGGCUAGACGGCCUCUCUGGAUUCCUCGUCACUCAGCAGGGCAUCUCUGAGAGAAAUGCC [U26A U96G] yielded a self-cleavage of 0.03.
With UACGUAGGUGGCUUUCCCCUGAUAGUGCUAAGGGGGCCUGGAAGUUUGGACAGGGCAGAGCUCAACACAGCGUGGCAAAGUGGCUGUGGCUAGACUGCCUCUCUGGAUUCCUCGUCACUCAGCAGGGCAUCUCUGAGAGAAAUGCC [U12C U52A] the self-cleavage was 1.41.
With UACGUAGGUGGUUUUCCCCUGAUAGUGCUAAGGGGGCCUGGAAGUUUGGACUGGGCAGAGCUCAACACAGCGCGGCAAAGUGGCUGUGGCUAGACUGCCUCUCUGGAUUCCUCGUCACUCAGCAGGGCAUCUCUGAGAGAAGUGCC [U73C A142G] the self-cleavage was 1.82.
Work on UACGUAGGUGGUUUUCCCCUGAUAGUGCUAAGGGGGCCUGGAAGUUUGGACUGGGCAGAGCUCAACACAGCGUGGCAAAGCGGCUGUGGCUAGACUGCCUCUCAGGAUUCCUCGUCACUCAGCAGGGCAUCUCUGAGAGAAAUGCC [U81C U104A] yielded a self-cleavage of 1.07.
For UACGUAGGUGGUUUUCCCCUGAUAGUGCUAAGGGGGCCUGGCAGUUUGGACUGGGCAGAGCUCAACACAGCGUGGCAAAGUGGCUGUGGCUAGACUGCCUCCCUGGAUUCCUCGUCACUCAGCAGGGCAUCUCUGAGAGAAAUGCC [A42C U102C], the self-cleavage was 1.13.
Work on UACGUAGGUGGUUUUCCCCUGAUAGUGCUAAGGGGGCCUGGAAGUUUGGACUGGGCAGAGCUCAACACAGCGUGGCAAAGUGGCUGUGGCUAGACUGCCUCUCUGGAUUCCUCGUCACUUAGCAGGACAUCUCUGAGAGAAAUGCC [C120U G127A] yielded a self-cleavage of 1.48.
Work on UACGUAGGUGGUUUUCCCCUGAUAGUGCUAAGGGGGCCUGGAAGUUUGGACAGGGCAGAGCUCAACACAGCGUGGCAAAGUGGCUGUGGCUAGACUGCCUCUCUGGAUUCCUCGUCACUCAGCUGGGCAUCUCUGAGAGAAAUGCC [U52A A124U] yielded a self-cleavage of 1.15.
Work on UACGUAGGUGGUUUUCCCCUGAUAGUGCUAAGCGGGCCUGGAAGUUUGGACUGGGCAGAGCUCAACACAGCGUGGCAAAGUGGCUGUGGCUAGACUGCCUCUCUGGAUUCCUCGUCACUCAGCAGGGCAUCUCUGAGAGAACUGCC [G33C A142C] yielded a self-cleavage of 1.28.
In the case of UACGUAGGUGGUUUUCCCCUGAUAGUGCUAAGGGGGCCUGGCAGUUUGGACUGGGCAGAGCUCAACACAGCGUGGCAAAGUGGCUGUGGCUAGACUGCCUCUCUGGAUUCCUCGUCACUCAGCAGGGCAUCUCUGAGAGAAAUGUC [A42C C145U], the self-cleavage is reported as 1.53.
Variant UACGUAGGUGGUUUUCCCCUGAUAGUGCUAAGGGGGCCUGGAAGUUUGGACUGGGCAGAGCUCAACACAGCGUGGCAAAGUGGCUGCGGCUAGACUGCCUCUCUGGAUUCCUCGUCACUUAGCAGGGCAUCUCUGAGAGAAAUGCC [U87C C120U] has a self-cleavage of 0.13.
With UACGUAGGUGGUUUUCCCCUGAUAGGGCUAAGGGGGCCUGGAAGUUUGGACUGGGCAGACCUCAACACAGCGUGGCAAAGUGGCUGUGGCUAGACUGCCUCUCUGGAUUCCUCGUCACUCAGCAGGGCAUCUCUGAGAGAAAUGCC [U26G G60C] the self-cleavage was 0.07.
For UACGCAGGUGGUUUUCCCCUGAUAGUGCUAAGGGGGCCUGGAAGUUUGGACUGGGCAGAGCUCAACACAGCGUGGCAAAGUGGCUGUGGCUAGACUGCCUCUCUGGAUUCCUCGUCACUCAGCAGGGUAUCUCUGAGAGAAAUGCC [U5C C128U], the self-cleavage was 1.53.
UACGUAGGUGGUUUUCCCCUGAUAGUGCUAAGGGUGCCUGGAAGUUUGGACUGGGCAGAGCUCAACACAGCGUGGCAAAGUGGCUGUGGCUAGACUGCCUCUCUGGAUUCCUCGUCACUCAGCAGGGCAUCUCUGAGGGAAAUGCC [G35U A138G] showed a self-cleavage of 1.47.
Work on UACGUAAGUGGUUUUCCCCUGAUAGUGCUAAGGGGGCCUGGAAGUUUGGACUGGGCAGAGCUCAACACAGCGUGGCAAAGUGGCUGUGGCUAGACUGCCUCUCUGGAUUCCUCGUCACUCAGCCGGGCAUCUCUGAGAGAAAUGCC [G7A A124C] yielded a self-cleavage of 1.37.
